T1: recombinant human IL-17F (produced in HEK cells, Proteintech HZ-1116) (human, UniProt Q96PD4 31-163)
T1 sequence (looked up): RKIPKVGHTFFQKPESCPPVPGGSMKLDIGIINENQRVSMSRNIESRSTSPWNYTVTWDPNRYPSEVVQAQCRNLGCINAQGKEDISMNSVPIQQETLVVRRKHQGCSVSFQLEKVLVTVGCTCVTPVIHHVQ

T2: human IL-17F with C-terminal Avi-tag, biotinylated, immobilized on BLI sensors (human, UniProt Q96PD4 31-163, biotin on the C-terminal Avi-tag (BirA))
T2 construct: also called biotinylated IL-17F; not shown: C-terminal Avi-tag
T2 sequence: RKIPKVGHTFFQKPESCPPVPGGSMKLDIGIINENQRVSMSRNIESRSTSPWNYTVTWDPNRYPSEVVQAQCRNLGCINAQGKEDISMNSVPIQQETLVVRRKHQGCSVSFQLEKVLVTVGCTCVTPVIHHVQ

T3: human IL-17A homodimer, bacterially expressed construct (residues 40-155 with GSEDS spacer) (human, UniProt Q16552 40-155)
T3 chain: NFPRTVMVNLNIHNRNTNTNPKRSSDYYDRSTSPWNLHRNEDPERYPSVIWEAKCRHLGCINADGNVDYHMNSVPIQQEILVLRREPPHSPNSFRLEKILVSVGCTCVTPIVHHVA

T4: human IL-17F homodimer, bacterially expressed construct (residues 39-163 with GSEGE linker) (human, UniProt Q96PD4 39-163)
T4 construct: also called IL-17F dimer
T4 chain: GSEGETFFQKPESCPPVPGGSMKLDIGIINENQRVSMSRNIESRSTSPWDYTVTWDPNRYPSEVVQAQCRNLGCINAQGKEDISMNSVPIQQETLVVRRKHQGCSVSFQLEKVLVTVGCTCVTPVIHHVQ


How the values were obtained:
[1] = target: T1, recombinant human IL-17F (produced in …); experiment: cell-based or functional assay
[2] = target: recombinant human IL-17A/F (produced in CHO cells, R&D Systems 5837-IL) (human, UniProt Q16552 24-155; Q96PD4 31-163, limits assumed); experiment: cell-based or functional assay
[3] = target: recombinant human IL-17A (produced in HEK cells, Proteintech HZ-1113) (human, UniProt Q16552 24-155); experiment: cell-based or functional assay
[4] = target: T2, human IL-17F with C-terminal Avi-tag, …; experiment: BLI, biotinylated IL-17F immobilized, monovalent VHH as analyte; 2:1 heterogenous model, high affinity component
[5] = target: T5, human IL-17A with C-terminal Avi-tag, biotinylated, immobilized on BLI sensors (human, UniProt Q16552 24-155, biotin on the C-terminal Avi-tag (BirA)); experiment: BLI, biotinylated IL-17A immobilized, monovalent VHH as analyte; 2:1 heterogenous model, high affinity component
T5 construct: also called biotinylated IL-17A; not shown: C-terminal Avi-tag

[6] = target: T5, human IL-17A with C-terminal Avi-tag, …; experiment: BLI, biotinylated IL-17A immobilized, monovalent VHH as analyte
[7] = target: T2, human IL-17F with C-terminal Avi-tag, …; experiment: BLI, biotinylated IL-17F immobilized, monovalent VHH as analyte
[8] = target: T5, human IL-17A with C-terminal Avi-tag, …; experiment: BLI, biotinylated IL-17A immobilized on streptavidin sensors, monovalent VHH as analyte (20, 100 nM), 2:1 heterogenous fit, low affinity component
[9] = target: T5, human IL-17A with C-terminal Avi-tag, …; experiment: BLI, biotinylated IL-17A immobilized on streptavidin sensors, monovalent VHH as analyte (25, 50, 100 nM), mass transport fit
[10] = target: T3, human IL-17A homodimer, bacterially …; experiment: BLI, biotinylated VHH immobilized on streptavidin sensors, IL-17 as analyte (10, 20, 40 nM), mass transport fit; apparent value, avidity possible;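 further: wavelength shift (nm) signal, 800 s association then 800 s dissociation, reference from parallel sensors without VHH, avidity from immobilized VHH may lower apparent off-rates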
[11] = target: T4, human IL-17F homodimer, bacterially …; experiment: as above
[12] = target: T6, human IL-17A/F heterodimer, bacterially expressed construct (human, UniProt Q16552 40-155; Q96PD4 39-163, limits assumed); experiment: as above
T6 construct: IL-17A unit with N68D, IL-17F unit with N83D and C137S, both with GSEDS spacer; already in the entries

[13] = target: T6, human IL-17A/F heterodimer, bacterially …; experiment: BLI, VHH immobilized, IL-17 as analyte; apparent KD with avidity; µM as printed (Table 3 uses pM)

Sequence of recombinant human IL-17A/F (produced in CHO cells, R&D Systems 5837-IL) (Q16552 24-155 limits assumed, chain 1 of 2, one chain of several): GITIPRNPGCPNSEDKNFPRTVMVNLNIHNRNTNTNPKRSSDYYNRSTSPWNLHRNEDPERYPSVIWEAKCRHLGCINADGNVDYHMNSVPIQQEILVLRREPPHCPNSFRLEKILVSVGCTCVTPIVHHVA
Sequence of recombinant human IL-17A (produced in HEK cells, Proteintech HZ-1113) (Q16552 24-155 limits assumed): as the sequence (Q16552 24-155 limits assumed, chain 1 of 2, one chain of several) above

Neutralization potency, ranking from 1 = the best to 4 (HEK-Blue IL-17 reporter cells) [1] | Neutralization potency, ranking from 1 = the best to 4 (HEK-Blue IL-17 reporter cells) [2] | Neutralization potency, ranking from 1 = the best to 4 (HEK-Blue IL-17 reporter cells) [3] | Kd [6] | Kd [7] | Binder | also measured
1 rank | 1 rank | 1 rank |  |  | Bm42A03 (VHH, Class C, second generation) VHH: QVQLVESGGGLVQPGGSLRLSCVASGFTFSSFAMSWYRQDPGKERKLVAAITNDGGTTFYSDLVKGRFTISRDNTKNTVYLQMNNVKPDDAAVYYCMAVRGLYGSNWYDYPFELWGQGTQVTVSS | Kd [4]: 0.35 nM; Kd [5]: 0.15 nM
3 rank | 1 rank | 1 rank |  |  | Bm44G10 (VHH, Class C, second generation) VHH: QVQLVESGGGLVQPGGSLRLSCVASGFTFSSFAMSWYRQDPGRERKLVAAITNDGGTTFYSDLVKGRFTISRDNTKNTVYLQMNNVKPDDAAVYYCMAVRGLYGSNWYDYPFELWGQGTQVTVSS | Kd [4]: 0.35 nM; Kd [5]: 0.2 nM
2 rank | 1 rank | 1 rank | 0.06 nM | 4 nM | Bm45G07 (VHH, Class D, second generation) VHH: QVQLVESGGGFVQAGGSLKLSCSVSGNTFITNHMGWFRQPPGKGREFVAGIRWSDGSTFYGDSVRGRFTISGDNAKHTLYLQMNSLKPDDTAVYYCYIDSGSDRYYGQGTLVTVSS | 
4 rank | 1 rank | 2 rank | 0.115 nM | 16 nM | VHH662 (VHH, Control VHH of Ablynx, disclosed in WO2012156219) VHH: EVQLVESGGGSVQAGDSLRLSCAASGRANSINWFGWFRQTPGKEREFVAGIRWSDAYTEYANSVKGRFTISRDNAKNTVDLQMDSLKPEDTAVYYCVLDLSTVRYWGQGTQVTVSS | 
1 rank | 1 rank | 2 rank |  |  | Bm42A09 (VHH, Class B, second generation) VHH: QVQLVESGGGLVRTGGSLRLSCSVSGDISSQSAMGWYRQVPGRQRELVAMIHTTKGDTYYADSVKGRFTISRINANNTIYLQMNNLKPEDTAIYYCTHNEPGDLYMGQGTLVTVSS | Kd [4]: ≤ 0.01 nM; KD2 [8]: 300 nM; Kd [5]: 0.8 nM
 |  |  |  |  | Re42H11 (VHH, Class A, first generation; For the crystal it was made with a His14-ScSUMO tag that was cleaved off) VHH: QVQLVESGGGLVQAGGSLRLSCAASGLTASSYAMGWFRQAPGKEREFVAAISWISGGTKYADSVKGRFTMSRDNAKKQVYLEMNSLKPEDTAVYYCNDMPYGLDTRMDEYAYWGQGTQVTVSS | Kd [9]: 1 nM
 |  |  |  |  | Re42B03 with C-terminal Avi-Biotin-tag, biotinylated (VHH, biotin on the C-terminal Avi-tag (BirA), not shown: C-terminal Avi-Biotin-tag) VHH: QVQLVESGGGLVQAGGSLRLSCAASGLTGSSYAMGWFRQAPGKEREFVAAISWISGGTKYTDSVKDRFTMSRDYAKKQVYLEMNSLKPEDTAVYYCNDMPYGLDTRMDEYVYWGQGTQVTVSS | Kd [10]: ≤ 0.01 nM; koff [10]: ≤ 1e-07 s⁻¹; kon [10]: 120000 M⁻¹ s⁻¹; Kd [11]: ≤ 0.01 nM; koff [11]: ≤ 1e-07 s⁻¹; kon [11]: 260000 M⁻¹ s⁻¹; Kd [12]: ≤ 0.01 nM; koff [12]: ≤ 1e-07 s⁻¹; kon [12]: 340000 M⁻¹ s⁻¹
 |  |  |  |  | Re42B03 (VHH, Class A, first generation) VHH: QVQLVESGGGLVQAGGSLRLSCAASGLTGSSYAMGWFRQAPGKEREFVAAISWISGGTKYTDSVKDRFTMSRDYAKKQVYLEMNSLKPEDTAVYYCNDMPYGLDTRMDEYVYWGQGTQVTVSS | Kd [9]: 0.7 nM
 |  |  |  |  | Re42H11 with C-terminal Avi-Biotin-tag, biotinylated (VHH, biotin on the C-terminal Avi-tag (BirA), not shown: C-terminal Avi-Biotin-tag) VHH: QVQLVESGGGLVQAGGSLRLSCAASGLTASSYAMGWFRQAPGKEREFVAAISWISGGTKYADSVKGRFTMSRDNAKKQVYLEMNSLKPEDTAVYYCNDMPYGLDTRMDEYAYWGQGTQVTVSS | Kd [10]: ≤ 0.01 nM; koff [10]: ≤ 1e-07 s⁻¹; kon [10]: 120000 M⁻¹ s⁻¹; Kd [11]: ≤ 0.01 nM; koff [11]: ≤ 1e-07 s⁻¹; kon [11]: 270000 M⁻¹ s⁻¹; Kd [12]: ≤ 0.01 nM; koff [12]: ≤ 1e-07 s⁻¹; kon [12]: 360000 M⁻¹ s⁻¹
2 rank | 2 rank | 2 rank | 0.13 nM | 0.075 nM | Bm43B02 (VHH, Class A, second generation) VHH: QVQLVESGGGLVQAGGSLNLSCVISRRTPSGYAMGWFRQASGKEREFVAAISWIGGGAVYADSVKGRFTMSRDNAKNTVYLQMNSLKPEDTAVYYCNDMPYGLDTTMDDYDYWGQGTLVTVSS | 
1 rank | 1 rank | 3 rank | 0.15 nM | 0.09 nM | Bm44B11 (VHH, Class A, second generation) VHH: QVQLVESGGGLVQAGGSLNLSCVISRRTPSGYAMGWFRQASGKEREFVAAISWIGGGAVYADSVKGRFTMSRDNAKNTVYLQMNSLKPEDTAVYYCNDMPYGLDTTMDDYDYWGQGTQVTVSS | 
2 rank | 1 rank | 1 rank | ≤ 0.01 nM | 2 nM | Bm42B11 (VHH, Class A, second generation) VHH: QVQLVESGGDLVQAGGSLRLSCSVSGLRVSSYAMGWFRQAPGKEREFVAAISWVGGDTRYADSVKGRFTMSRDNAKKQVYLEMNSLKPEDTAVYYCNDMPYGMETRMDDYASWGQGTQVTVSS | 
 |  |  |  |  | Bm18B05 (VHH, Class A, first generation) VHH: QVQLVESGGGLVQPGGSLRLSCAVSGRTFSSYAMGWFRRPPGKEREFVAAISWSGGDTKYADFVTDRFTISRDDAKSTVYLQMNSLKPEDTAVYYCNDMPYGLDTRMDEYEYWGQGTQVTVSS | Kd [9]: 2 nM
2 rank | 1 rank | 1 rank | 0.05 nM | 0.5 nM | Re42B04a (VHH, Class A; Monovalent VHH) VHH: QVQLVESGGGLVQVGGSLRLSCEVSGLPVSSYAMGWFRQAPEKEREFVAAISWIGGDSRYAHFVKGRFTISRDNAKNTVHLQMDSLKPEDTAVYYCNDMPYGLDTRMDEYEYWGQGTQVTVSS | Kd [9]: ≤ 0.01 nM
 |  |  |  |  | Re42B04 with C-terminal Avi-Biotin-tag, biotinylated (VHH, biotin on the C-terminal Avi-tag (BirA), not shown: C-terminal Avi-Biotin-tag) VHH: QVQLVESGGGLVQVGGSLRLSCEVSGLPVSSYAMGWFRQAPEKEREFVAAISWIGGDSRYAHFVKGRFTISRDNAKNTVHLQMDSLKPEDTAVYYCNDMPYGLDTRMDEYEYWGLGTQVTVSS | Kd [10]: ≤ 0.01 nM; koff [10]: ≤ 1e-07 s⁻¹; kon [10]: 110000 M⁻¹ s⁻¹; Kd [11]: ≤ 0.01 nM; koff [11]: ≤ 1e-07 s⁻¹; kon [11]: 140000 M⁻¹ s⁻¹; Kd [12]: ≤ 0.01 nM; koff [12]: ≤ 1e-07 s⁻¹; kon [12]: 240000 M⁻¹ s⁻¹; Kd [13]: ≤ 20000 nM

— patent publication US20260209334A1 (MAX PLANCK GESELLSCHAFT ZUR F RDERUNG DER WISSENSCHAFTEN E V, published 2026)
